1 substance from patent US20230303623A1, “PEPTIDES AND METHODS OF USE” (REALTA LIFE SCIENCES, INC., priority 2020, published 2023) can be followed below.

Bridges are numbered along the chain shown (N, C = ends). Where no end group is shown, it is not given here. [ ]: non-standard residue; d: D form. R8 = C=CCCCCCC[C@@](C)(N)C(=O)O; S5 = C=CCCC[C@](C)(N)C(=O)O; Sar = CNCC(=O)O

Assay [1] deals with antibody-initiated complement activation (lysis of AB human red blood cells by type O serum). Description: ABO incompatibility hemolytic complement assay (CH50-type). In kind it is cell-based. The settings on record: peptides 0.8 mg/ml (~0.5 mM); compared to parent peptide. As to the method: FIG. 1A-1B show PIC1 peptides' inhibition of complement activation in an ABO incompatibility assay. […] Inhibition of ABO incompatibility hemolysis in a CH50-type assay. Peptides are at a final concentration of 0.5 mM. Values are represented as a percent of the positive control, which consists of human 0 sera and AB red blood cells in GVBS^++ buffer. Data are the means of n=3 independent experiments±SEM.
For hemolytic complement assays, human red blood cells (RBCs) from type AB donors were purified, washed, and standardized to 1.0×10^9 cells/ml, as previously described. Human sera from type 0 donors at a 15% final concentration was combined with 0.5 mM of the peptides and the volume was brought up to 0.2 ml with GVBS^++ and 5.0×10^7 RBCs. The samples were incubated for 1 hour at 37° C. and then spun at 3,000 rpm for 5 minutes and the supernatant was collected and read at 412 nm. Values are represented as a percent of the positive control, which consists of human 0 sera and AB red blood cells in GVBS^++ buffer.
To assess the extent to which the peptide variants inhibit antibody-initiated complement activation, an ABO incompatibility ex vivo assay was utilized in which purified erythrocytes from a ‘type AB+’ donor are incubated with sera from a ‘type 0’ subject containing anti-A and anti-B antibodies. Peptides were tested at a concentration of 0.8 mg/ml (˜0.5 mM).

In assay [2] the target is T1, C1q (Homo sapiens, UniProt P02745+P02746+P02747).
T1 construct: purchased Complement Technology (Tyler, TX)
T1 sequence (P02745 23-245): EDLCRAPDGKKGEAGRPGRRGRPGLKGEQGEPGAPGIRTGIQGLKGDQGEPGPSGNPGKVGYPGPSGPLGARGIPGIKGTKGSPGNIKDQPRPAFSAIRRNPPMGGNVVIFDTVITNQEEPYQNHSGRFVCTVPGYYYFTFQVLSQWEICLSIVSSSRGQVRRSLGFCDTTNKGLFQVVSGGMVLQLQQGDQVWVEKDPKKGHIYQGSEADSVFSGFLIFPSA
T1 sequence (P02746 28-253): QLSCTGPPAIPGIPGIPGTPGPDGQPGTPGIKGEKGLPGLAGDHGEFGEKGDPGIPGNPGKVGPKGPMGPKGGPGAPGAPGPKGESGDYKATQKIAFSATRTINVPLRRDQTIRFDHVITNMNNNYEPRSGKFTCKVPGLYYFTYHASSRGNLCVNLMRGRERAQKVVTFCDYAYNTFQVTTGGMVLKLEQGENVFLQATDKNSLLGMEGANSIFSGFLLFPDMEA
T1 sequence (P02747 29-245): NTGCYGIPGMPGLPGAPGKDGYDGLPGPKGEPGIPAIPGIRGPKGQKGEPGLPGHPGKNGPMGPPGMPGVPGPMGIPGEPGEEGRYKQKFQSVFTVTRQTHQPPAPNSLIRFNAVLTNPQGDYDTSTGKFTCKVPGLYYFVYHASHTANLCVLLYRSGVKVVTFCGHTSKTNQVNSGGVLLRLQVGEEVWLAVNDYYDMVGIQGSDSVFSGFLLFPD
As to the kind of experiment: C1q binding ELISA-type assay. The note with it: compared to parent peptide. As to the method:
The C1q binding assay was performed as previously described. Briefly, an Immunlon-2 HB ELISA plate was coated with 1 μg/ml C1q in bicarbonate buffer overnight at 4° C. The plates were washed with PBS-T (phosphate buffered saline+0.1% Tween) and then blocked with 1% gelatin/PBS for 2 hours at room temperature. After washing, the plates were incubated with the peptides starting at 2.5 mg/ml and then serially diluted in 1% gelatin/PBS for 1 hour at room temperature followed by washing. Plates were then probed with rabbit antibody raised against the lead peptide […] (SEQ ID NO: 2) that lacked PEGylation at 1:1000 in 1% gelatin/PBS for 1 hour at room temperature followed by a goat anti-rabbit HRP (Sigma Aldrich, St Louis, MO) at 1:1,000 in 1% gelatin/PBS for 1 hour at room temperature with a washing step in between. After addition of TMB substrate solution to the wells, the reaction was stopped using 1N H2SO4, and the plate read on a BioTek Synergy HT plate reader at 450 nm.
The astrovirus capsid protein and the PIC1 molecules derived from it inhibit classical complement pathway activation by binding to the pattern recognition molecule C1q. The inventors next tested peptide variant binding to C1q in an ELISA-type assay in which C1q is used as the capture substrate and bound peptide detected with a rabbit polyclonal antibody against the peptide portion of PA-dPEG24 ([…]-d24; SEQ ID NO: 3). Binding curves were derived for the stapled and D-amino acid peptides based on the PA-I8Sar and PA-C9Sar (FIG. 5A-5C) backbone, from which half-maximal binding concentrations were calculated (FIGS. 2A and B, respectively). […] For the peptides based on the PA-C9Sar backbone, C1q was bound to a greater degree than the parent peptide (FIG. 2B).
For orientation: ELISA stands for enzyme-linked immunosorbent assay.

The target in the next assay is T2, MPO (Homo sapiens, UniProt P05164).
T2 construct: purchased Lee BioSolutions (Maryland Heights, MO)
T2 sequence (P05164 279-745 limits assumed): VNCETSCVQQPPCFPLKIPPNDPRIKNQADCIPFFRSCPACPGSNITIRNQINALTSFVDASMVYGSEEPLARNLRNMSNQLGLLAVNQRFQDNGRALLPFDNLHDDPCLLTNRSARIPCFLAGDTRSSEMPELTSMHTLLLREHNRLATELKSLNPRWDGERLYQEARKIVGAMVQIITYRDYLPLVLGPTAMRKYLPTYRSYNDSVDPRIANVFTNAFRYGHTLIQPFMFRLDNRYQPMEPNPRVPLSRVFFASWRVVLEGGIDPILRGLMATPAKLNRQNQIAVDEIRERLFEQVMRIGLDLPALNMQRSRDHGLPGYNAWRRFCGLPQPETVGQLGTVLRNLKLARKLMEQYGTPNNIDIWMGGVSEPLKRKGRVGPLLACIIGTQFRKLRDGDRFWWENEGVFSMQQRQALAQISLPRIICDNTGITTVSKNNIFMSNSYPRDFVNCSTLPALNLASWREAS
T2 sequence (P05164 165-273 limits assumed): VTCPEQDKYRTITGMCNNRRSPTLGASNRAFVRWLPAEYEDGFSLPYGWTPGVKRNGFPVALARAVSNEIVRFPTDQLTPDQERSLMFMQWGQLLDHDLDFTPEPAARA
As to the kind of experiment: MPO activity assay. The note with it: compared to parent peptide. In kind it is biochemical. As to the method: The MPO activity assay was performed as previously described. Briefly, peptides were diluted to 12 mg/ml and serially titrated in a 96 well plate at a volume of 0.02 ml. MPO was diluted to 20 μg/ml and 0.02 ml was added to the titrated peptides. TMB (3,30,5,50-tetramethylbenzidine) (0.1 ml) was added to each well for 2 minutes, followed by 0.1 ml of 2.5 N H2SO4 for another 2 minutes, and then read on a 96 well plate reader (BioTek) at 450 nm.
To ascertain the inhibition of MPO activity by the various peptides, a range of concentrations of the stapled peptides and D-amino acid variants were tested (FIG. 3A-3B) and half-maximal activity levels were calculated from the dose-response curves (FIG. 6A-6C, respectively).

Assay [3] in a line: Total Antioxidant Capacity (TAC) assay. The settings on record: highest peptide concentration 1.5 mM; compared to parent peptide. As to the method:
As previously reported, the TAC (Total Antioxidant Capacity) Assay (Cell Biolabs, Inc, San Diego, CA) was used to measure the antioxidant capacity of the PIC1 variants based on the reduction of copper (II) to copper (I). The kit protocol was performed per the manufacturer's recommendations.
The antioxidant properties for the PIC1 variants were evaluated in a Total Antioxidant Capacity (TAC) assay, as previously reported. Total antioxidant activity over a range of peptide concentrations were determined for the stapled and the D-amino acid peptides based on the PA-I8Sar and PA-C9Sar backbones (FIG. 4A-4B), with the activity of the highest peptide concentration reported (1.5 mM) (FIG. 5A-5C).

In another assay the target is T3, CTLA-4 (Homo sapiens, UniProt P16410).
T3 sequence (P16410 36-223): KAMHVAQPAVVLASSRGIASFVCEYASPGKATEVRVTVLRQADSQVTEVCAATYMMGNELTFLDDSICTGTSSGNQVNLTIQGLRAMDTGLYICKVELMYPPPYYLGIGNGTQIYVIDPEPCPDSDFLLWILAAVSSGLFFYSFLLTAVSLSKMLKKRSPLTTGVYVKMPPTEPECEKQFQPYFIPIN
As to the kind of experiment: Peptide binding to immobilized CTLA-4, ELISA plate-based assay. The note with it: increasing amounts of peptide. As to the method:
(§1) RLS-0134 and RLS-0150 were allowed to bind to immobilized CTLA-4, PD-1, PD-L1 on the surface of the plate. Bound C1q and MAC-1 served as a positive and negative control for peptide binding, respectively. Increasing amounts of peptides were added to the plates followed by a rabbit polyclonal antibody that recognizes the peptides and then a secondary anti-rabbit antibody conjugated with HRP. The plate was then developed by addition of TMB as the substrate for the colorimetric assay.
(§2) The inventors further evaluated if RLS-0134 and RLS-0150 could bind to the well characterized checkpoint inhibitor, cytotoxic T-lymphocyte associated protein 4 (CTLA-4 aka CD152). […] Therefore, the pharmaceutical inhibition of CTLA-4 or its ligand has been considered a promising strategy by many cancer researchers and could be a therapeutic target in cancer immunotherapy. To ascertain the ability of select PIC1 peptides to bind CTLA-4, a binding assay was performed in which these proteins were coated on a microtiter plate followed by incubation with increasing amounts of either RLS-0134 and RLS-0150. Plates coated with PD-1, PD-L1 and C1q served as a positive control for peptide binding whereas MAC-1 served as a negative control for peptide binding.

A further assay deals with PD-1 (Homo sapiens, UniProt Q15116). As to the kind of experiment: Peptide binding to immobilized PD-1, ELISA plate-based assay. The settings on record: increasing amounts of peptide. As to the method:
as §1, §2

The target in the next assay is PD-L1 (Homo sapiens, UniProt Q9NZQ7). As to the kind of experiment: Peptide binding to immobilized PD-L1, ELISA plate-based assay. The settings on record: increasing amounts of peptide. As to the method: as §1, §2
Sequence of PD-L1 (Q9NZQ7 19-290): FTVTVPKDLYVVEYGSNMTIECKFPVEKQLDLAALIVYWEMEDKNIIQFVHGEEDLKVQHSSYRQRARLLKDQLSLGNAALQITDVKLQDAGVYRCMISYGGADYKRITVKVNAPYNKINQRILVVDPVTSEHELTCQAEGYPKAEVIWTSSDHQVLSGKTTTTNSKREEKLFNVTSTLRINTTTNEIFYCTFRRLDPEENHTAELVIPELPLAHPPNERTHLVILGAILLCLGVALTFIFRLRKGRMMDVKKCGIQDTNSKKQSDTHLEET
Assay [4] has as its target T1, C1q. As to the kind of experiment: Peptide binding to immobilized C1q (positive control), ELISA plate-based assay of Example 3. The settings on record: increasing amounts of peptide; positive control protein. As to the method:
as §1, §2

The target of another assay is MAC-1 (Homo sapiens, UniProt P05107+P11215). Description: Peptide binding to immobilized MAC-1 (negative control), ELISA plate-based assay. The settings on record: increasing amounts of peptide; negative control protein. As to the method:
as §1, §2

Sequence of MAC-1 (P05107 23-769, other chains not shown): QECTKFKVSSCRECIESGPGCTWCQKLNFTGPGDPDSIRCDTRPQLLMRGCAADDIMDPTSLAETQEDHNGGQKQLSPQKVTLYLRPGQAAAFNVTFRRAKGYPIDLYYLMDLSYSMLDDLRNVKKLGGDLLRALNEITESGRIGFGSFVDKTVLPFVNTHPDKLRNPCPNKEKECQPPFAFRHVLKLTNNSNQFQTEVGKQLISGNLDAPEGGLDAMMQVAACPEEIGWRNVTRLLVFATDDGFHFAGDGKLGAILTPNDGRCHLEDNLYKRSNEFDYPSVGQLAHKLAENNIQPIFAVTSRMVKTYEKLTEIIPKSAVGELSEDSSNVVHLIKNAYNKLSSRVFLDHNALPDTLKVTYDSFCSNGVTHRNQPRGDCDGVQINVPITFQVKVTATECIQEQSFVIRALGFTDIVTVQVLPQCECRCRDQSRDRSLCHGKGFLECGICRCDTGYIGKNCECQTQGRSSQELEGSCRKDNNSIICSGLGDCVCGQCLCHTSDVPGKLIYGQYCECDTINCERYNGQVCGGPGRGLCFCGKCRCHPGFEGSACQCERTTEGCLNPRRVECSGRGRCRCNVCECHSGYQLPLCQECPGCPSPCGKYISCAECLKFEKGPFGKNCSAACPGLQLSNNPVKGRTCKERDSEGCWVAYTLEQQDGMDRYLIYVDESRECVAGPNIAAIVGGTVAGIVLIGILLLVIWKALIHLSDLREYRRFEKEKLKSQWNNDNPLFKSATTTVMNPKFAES
Sequence of PD-1 (Q15116 25-288): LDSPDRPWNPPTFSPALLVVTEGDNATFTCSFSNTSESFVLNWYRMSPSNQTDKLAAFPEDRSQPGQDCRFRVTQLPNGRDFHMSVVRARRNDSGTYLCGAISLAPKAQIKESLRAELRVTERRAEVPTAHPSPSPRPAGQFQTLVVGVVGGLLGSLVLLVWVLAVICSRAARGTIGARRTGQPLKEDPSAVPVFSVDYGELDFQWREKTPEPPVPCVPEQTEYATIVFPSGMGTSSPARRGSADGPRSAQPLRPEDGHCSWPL

In the case of “IAR8ILEP(Sar)CS5QERAA (IA[R8]ILEP[Sar]C[S5]QERAA; staple 3-10; not fully specified; printed as IAR8ILEP(Sar)CS5QERAA) [PA-0134]”, the “inhibition of ABO incompatible hemolysis (complement inhibition), in words” value in assay [1] was “similar”. Moreover, the “binding to C1q (binding curves, half-maximal binding), in words” value with C1q [2] is recorded as “markedly increased binding to C1q”. Moreover, the “inhibition of MPO activity (half-maximal values), in words” value in the assay with MPO is listed as “reduced inhibition of MPO activity”. In addition, in assay [3], the “total antioxidant capacity, in words” value is on record as “decreased activity compared to the parent peptide”. The “binding to CTLA-4, in words” value in the assay with CTLA-4 was “bound CTLA-4”. For the same substance, the “binding to PD-1, in words” value with PD-1 is “dose-dependent binding”. In addition, the “binding to PD-L1, in words” value in the assay with PD-L1 is “dose-dependent binding”. In addition, the “binding to C1q, in words” value with C1q [4] is given as “dose-dependent binding”. Moreover, in the assay with MAC-1, the “binding to MAC-1, in words” value is “minimal binding”.
